# Test results from article PMC10937788 (Plant Molecular Biology, 2024).
# T1: SyArgG (Synechocystis sp. PCC 6803, UniProt P77973)
# T1 construct: gene argG; synthetic ORF in pGEX-6P-1 (BamHI-XhoI); GST-tagged, tag kept (eluted with glutathione, no cleavage described); expressed in E. coli BL21(DE3)
# T1 sequence (P77973 1-400): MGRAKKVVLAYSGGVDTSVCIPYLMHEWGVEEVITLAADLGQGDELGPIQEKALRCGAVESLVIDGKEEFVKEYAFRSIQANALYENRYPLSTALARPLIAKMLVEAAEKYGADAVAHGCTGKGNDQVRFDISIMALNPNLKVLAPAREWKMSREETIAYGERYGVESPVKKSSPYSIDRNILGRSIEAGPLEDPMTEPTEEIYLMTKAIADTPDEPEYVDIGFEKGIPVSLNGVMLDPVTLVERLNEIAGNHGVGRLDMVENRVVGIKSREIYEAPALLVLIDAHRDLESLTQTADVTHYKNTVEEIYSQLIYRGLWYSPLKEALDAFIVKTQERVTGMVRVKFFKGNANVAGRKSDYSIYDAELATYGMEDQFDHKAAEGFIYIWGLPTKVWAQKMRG
# B1: SyArgG (Synechocystis sp. PCC 6803 substr. Kazusa) (protein)
# chain: T1 sequence (P77973 1-400)
# notes: synthetic ORF in pGEX-6P-1 (BamHI-XhoI); GST-tagged, tag kept (eluted with glutathione, no cleavage described); expressed in E. coli BL21(DE3)
# What was measured:
# SyArgG = biological target: T1, SyArgG; experiment: coupled NADH oxidation assay (myokinase, pyruvate kinase, lactate dehydrogenase), […] nm; assay type: biochemical; details: read-out: % residual activity at 5 mM
# purified protein [1] = substrate: N[C@@H](CC(=O)O)C(=O)O; experiment: purified protein; details: 38 °C, pH 9.0 Tris-HCl, 5 mM MgCl2, 2 mM KCl, co-substrates 7.5 mM citrulline, 1 mM ATP
# purified protein [2] = substrate: NC(=O)NCCC[C@H](N)C(=O)O; experiment: purified protein; assay type: biochemical, Synechocystis sp. PCC 6803; details: 38 °C, pH 9.0 Tris-HCl, 5 mM MgCl2, 2 mM KCl, co-substrates 7.5 mM aspartate, 1 mM ATP
# purified protein [3] = substrate: Nc1ncnc2c1ncn2[C@@H]1O[C@H](COP(=O)(O)OP(=O)(O)OP(=O)(O)O)[C@@H](O)[C@H]1O; experiment: purified protein; assay type: biochemical, Synechocystis sp. PCC 6803; details: 38 °C, pH 9.0 Tris-HCl, 5 mM MgCl2, 2 mM KCl, co-substrates 7.5 mM citrulline, 7.5 mM aspartate
molecule,measurement,setting,value
O=C(O)CCC(=O)O [succinate],remaining activity at 5000 µM,SyArgG,92.1%
N=C(N)NCCC[C@H](N)C(=O)O [arginine],remaining activity at 5000 µM,SyArgG,18.4%
NCCC[C@H](N)C(=O)O [ornithine],remaining activity at 5000 µM,SyArgG,80.1%
NCCCC[C@H](N)C(=O)O [lysin],remaining activity at 5000 µM,SyArgG,78.1%
B1,Km,purified protein [1],360 ± 40 µM
same,kcat,purified protein [1],0.77 s⁻¹
same,kcat/Km,purified protein [1],2160 M⁻¹ s⁻¹
same,Km,purified protein [2],350 ± 10 µM
same,kcat,purified protein [2],0.69 ± 0.01 s⁻¹
same,kcat/Km,purified protein [2],1970 ± 50 M⁻¹ s⁻¹
same,Km,purified protein [3],260 ± 10 µM
same,kcat,purified protein [3],0.7 ± 0.002 s⁻¹
same,kcat/Km,purified protein [3],2750 ± 120 M⁻¹ s⁻¹
